Tests used:
[1] = target: S-100b; test: ELISA: S-100b coated at 500 ng/well, sRAGE at 1.0 x 10^-4 mg/ml, detected with anti-sRAGE antibody complex
[2] = target: S-100b; test: ELISA: 88 wells coated with S-100b at 500 ng/well, sRAGE at 2.2 x 10^-4 mg/ml, polyclonal anti-sRAGE detection (Figure 7)
[3] = target: S-100b; test: ELISA saturation curve with Scatchard analysis (Figure 8): S-100b coated at 50 ng/well, sRAGE about 0.3 to 10 nM, high affinity component
[4] = target: S-100b; test: ELISA saturation curve with Scatchard analysis (Figure 9): S-100b coated at 100 ng/well, sRAGE about 0.3 to 10 nM, high affinity component
[5] = target: S-100b; test: ELISA saturation curves with Scatchard analysis (Figures 10 and 11): S-100b coated at 500 and 100 ng/well, sRAGE about 23 to 470 nM or 5 to 76 nM, low affinity site

An OD (maximal signal) [1] of 1.06 OD, an average OD405 [2] of 0.705 OD405 and a Kd [3] of 6 nM were found for “soluble RAGE (sRAGE), the soluble, extracellular portion of human Receptor for Advanced Glycated Endproducts (from UniProt Q15109 23-339)” in this work. The Kd [4] was 2 nM and the Kd [5] was 60 nM.

— patent publication EP1724589A2
